This is an account of results in the supplement of paper PMC9170038.

The data set concerns MS2 coat protein. Description: apparent KD of MS2 coat protein; designed switch direction (-1 OFF switch, 1 ON switch): 1; higher = weaker reporter binding. The method, boiled down: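 RNA switches sharing common flanks were transcribed by stalled E. coli RNA polymerase on Illumina chips. A doubling series of SNAP-549-labelled MS2 coat protein, from 0.7 or 1.5 nM to 3 µM, was applied in Tris-HCl pH 7.5 buffer with KCl, MgCl2, BSA, DTT, tRNA and Tween-20. Each step lasted 0.8–1.5 h at the bottom of the series and 10–20 min at the top. Normalised cluster fluorescence was curve-fitted, giving apparent KD as the per-design median over clusters.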

Where [1] appears, read: Eterna round: R95, input ligand: FMN 200 uM.
The mark [2] stands for this setting: Eterna round: R95, input ligand: microRNA oligo, concentration not stated.
[3] abbreviates: Eterna round: R95, input ligand: none.
Where [4] appears, read: input ligand: microRNA oligo, concentration not stated.

Take “UCUUGGUUUUUGCUCGUUUUUUGUGUUGAACAUGAGGAUCACCCAUGUAUUGUACAAUCCAGUUUAAUAAUGGUCCA [Mod of one of JR's submissions 2] (puzzle: Sensor for hsa-mir-208a)”: the “apparent KD of MS2 coat protein” value by setting is: under setting [1], 0.055 µM; under setting [2], 0.051 µM; under setting [3], 0.0617 µM.

For “UCUUGGUUUUUGCUCGUUUUUUGUGUUGAACAUGAGGAUCACCCAUGUAUUGUACAAUCCGAUUUAAUAAUGGUCCG [JMF 50] (puzzle: Sensor for hsa-mir-208a)”, the “apparent KD of MS2 coat protein” value reads like this: under setting [1], 0.0425 µM; under setting [2], 0.0484 µM; under setting [3], 0.0464 µM.

With “UCUUGGUUUUUGCUCGUUUUUUGUGUUGAACAUGAGGAUCACCCAUGUAUUGUACAAUCCGGUUUAAUAAUGGUCCG [JMF 51] (puzzle: Sensor for hsa-mir-208a)”, the “apparent KD of MS2 coat protein” value came out at 0.0352 µM under setting [1], 0.0267 µM under setting [2] and 0.0363 µM under setting [3].

With “UCUUGGUUUUUGCUCGUUUUUUGUGUUGAACAUGAGGAUCACCCAUGUAUUGUACAGUCCAGUUUGAUAAUGGUCCG [JMF 56] (puzzle: Sensor for hsa-mir-208a)”, the “apparent KD of MS2 coat protein” value by setting is: under setting [1], 0.039 µM; under setting [2], 0.0333 µM; under setting [3], 0.0443 µM.

As to “UCUUGGUUUUUGCUCGUUUUUUGUGUUGAACAUGAGGAUCACCCAUGUAUUGUACGGUCCGAUUUGAUAGUGGUCCG [JMF 20] (puzzle: Sensor for hsa-mir-208a)”, the “apparent KD of MS2 coat protein” value under setting [1] amounted to 0.0261 µM, the “apparent KD of MS2 coat protein” value under setting [2] was determined as 0.0157 µM and the “apparent KD of MS2 coat protein” value under setting [3] amounted to 0.027 µM.

On to “UGAACCUUCACAGGAUAUCAUGCGAAAAUUGCGUGAGAAGGGUGAAUACGGUGUUCAUAGUUGCACAUGAGGAUCACCCAUGUA [SameState NG1 #54] (Eterna round: R96, puzzle: Same State NG 1)”, for which the “apparent KD of MS2 coat protein” value reads like this: (input ligand: FMN 200 uM) 0.141 µM; under setting [4], 0.0692 µM; (input ligand: none) 0.316 µM.

On to “UGAAUAGUCACAGGAUAUCAUGCGAAAAUUGCGUGAGAAGGGUGGGUGUUGUGCUCAAAGUGCUACAUGAGGAUCACCCAUGUU [SameState NG1 #41] (Eterna round: R96, puzzle: Same State NG 1)”, for which the “apparent KD of MS2 coat protein” value is, setting by setting: (input ligand: FMN 200 uM) 1.54 µM; under setting [4], 0.638 µM; (input ligand: none) 1.21 µM.

As to “UGAAUAGUGAUAGGAUAUACAUGAGGAAUCCUCGUAGAAGGAUCAUAACAUGAGGAUCACCCAUGUAGCCGUCGAAAGACGGCA [Mat - Same State NG 1 - JL mod - D58] (Eterna round: R96, puzzle: Same State NG 1)”, the “apparent KD of MS2 coat protein” value was 0.2 µM (input ligand: FMN 200 uM), 0.072 µM under setting [4] and 0.122 µM (input ligand: none).

“UGAAUAGUUACAGGAUAUGAGCCGUAAAUUGGGUCAGAAGGGUGGGUGUUCUGCGCUGUGUGUUACAUGAGGAUCACCCAUGUU [SameState NG1 #31] (Eterna round: R96, puzzle: Same State NG 1)”: the “apparent KD of MS2 coat protein” value is, setting by setting: (input ligand: FMN 200 uM) 0.162 µM; under setting [4], 0.0349 µM; (input ligand: none) 0.0634 µM.

In the case of “UGAAUAUUUACAGGAUAUGAGUUGUAUAGUGGAUCAGAAGGGUGGGUGUUUUGCACGGUGUGUUACAUGAGGAUCACCCAUGUU [SameState NG1 #26] (Eterna round: R96, puzzle: Same State NG 1)”, the “apparent KD of MS2 coat protein” value runs as follows: (input ligand: FMN 200 uM) 0.412 µM; under setting [4], 0.206 µM; (input ligand: none) 0.196 µM.

Turning to “UGACACACGGCAGGAUAUCGAUUCCAAAGGAAUCGAGAAGGGCCUCAUGUCGUGGAAACGUGACAUGAGGAUCACCCAUGUUGC [Omei SS(NG)1 Cv15] (Eterna round: R96, puzzle: Same State NG 1)”, the “apparent KD of MS2 coat protein” value was 0.222 µM (input ligand: FMN 200 uM), 0.0158 µM under setting [4] and 0.096 µM (input ligand: none).

Consider “UGACACACGGCAGGAUAUGCUUAGCAAAGCUAAGCAGAAGGGCCUCAUGUCGUGGAAAUGUGACAUGAGGAUCACCCAUGUCGC [Omei SS(NG)1 Cv5] (Eterna round: R96, puzzle: Same State NG 1)”, for which the “apparent KD of MS2 coat protein” value was 0.0273 µM (input ligand: FMN 200 uM), 0.0178 µM under setting [4] and 0.0299 µM (input ligand: none).

As to “UGAGCCGGCACUGAGGAUAUUCAUAUUUAAACAUGAGGAUCACCCAUGUAGGCCAGAAGGCCUUGGGAGAAGGCAGGUCGGCUCC [salish99_ss2_r3_079] (puzzle: Same State 2)”, the “apparent KD of MS2 coat protein” value by setting is: under setting [1], 0.0257 µM; under setting [2], 0.264 µM; under setting [3], 0.459 µM.

“UGAUCGCUUGGAGGAUAUCCAACUAUCCUAGUUGGAGAAGGCCAAGCUACAGAGCUAAGCUUGGAAGUCACUUCGAAUCAACAC [pwkr ssNG1 F9.4] (Eterna round: R96, puzzle: Same State NG 1)”: the “apparent KD of MS2 coat protein” value by setting is: (input ligand: FMN 200 uM) 0.00223 µM; under setting [4], 0.129 µM; (input ligand: none) 0.155 µM.

Take “UGCCGGAUACCGACUACAUGAGGAUCACCCAUGUUAUCUCGUUAGGAUAUACUAACAACAGAUUAGUAGAAGGGACGCGGGCUU [Eternabot solution 23] (Eterna round: R96, puzzle: Same State NG 3)”: the “apparent KD of MS2 coat protein” value amounted to 0.0255 µM (input ligand: FMN 200 uM), 0.0246 µM under setting [4] and 0.0307 µM (input ligand: none).

In the case of “UGCUAGUGGGUAGGAUAUCUAGGAUAUGGGAAAGACUAAGUCUGUAGGUCACCUAACCCAGAAGGAGAGAAGGACCAUUCAGCU [pwkr ssNG2 2FMN + F9.26] (Eterna round: R96, puzzle: Same State NG 2)”, the “apparent KD of MS2 coat protein” value by setting is: (input ligand: FMN 200 uM) 0.165 µM; under setting [4], 0.0225 µM; (input ligand: none) 0.038 µM.

“UGCUUCGUGUAAGGAUAUGCUGCCGUUUCGGCUGCAGAAGGUACUAUAAUACAUGAGGAUCACCCAUGUCUCUCGCUUUGCGGG [salish99_SSng1_r04_305] (Eterna round: R96, puzzle: Same State NG 1)”: the “apparent KD of MS2 coat protein” value under setting [4] came to 0.0421 µM.

Regarding “UGGAGACGUCAAGGAUAUGCUACCGUUUCGGUAGCAGAAGGUGAUCACAUGAGGAUCACCCAUGUAUGCAUGCGUGAGCGUGCU [JL SSNG1 3.52] (Eterna round: R96, puzzle: Same State NG 1)”, the “apparent KD of MS2 coat protein” value (input ligand: FMN 200 uM) came out at 0.0721 µM, the “apparent KD of MS2 coat protein” value under setting [4] was determined as 0.00249 µM and the “apparent KD of MS2 coat protein” value (input ligand: none) was 0.00624 µM.

“UGGAUCUAGGCUUGCCUGGGUCCAUGCUGACAUGAGGAUCACCCAUGUGCAUCCUACAAGCUUUUUGCUUGUCUGCC (Eterna round: R96, puzzle: Sensor for hsa-mir-208a)”: the “apparent KD of MS2 coat protein” value turned out to be 0.416 µM (input ligand: FMN 200 uM), 0.267 µM under setting [4] and 0.216 µM (input ligand: none).

Take “UGGAUCUAGGCUUGCCUGGGUCCAUGCUGACAUGAGGAUCACCCAUGUGCAUCCUACAAGCUUUUUGCUUGUCUGCC (puzzle: Sensor for hsa-mir-208a)”: the “apparent KD of MS2 coat protein” value is 0.146 µM under setting [1], 0.122 µM under setting [2] and 0.0937 µM under setting [3].

On to “UGGCUCAGACGAGGAUAUGGUCAUGGCGCUUCGGCGCAUACAUGAGGAUCACCCAUGUAGGGUGAUCAGAAGGCGUCUGAGCCA [SSNG2/9-A2] (Eterna round: R96, puzzle: Same State NG 2)”, for which the “apparent KD of MS2 coat protein” value was determined as 0.0872 µM (input ligand: FMN 200 uM), 0.573 µM under setting [4] and 0.715 µM (input ligand: none).

As for “UGGCUGAGUCGAGGAUAUGAUCUUCAUAUAUAUACAUGAGGAUCACCCAUGUAUAAUUACAUGGAUCAGAAGGCGACUCAGCCA [SSNG2/13-A1] (Eterna round: R96, puzzle: Same State NG 2)”, under setting [4], the “apparent KD of MS2 coat protein” value stood at 0.0229 µM.

With “UGGUAACAUGAGGAUCACCCAUGUCAAAUGAAUCGAGGAUAUGGGAACUAACAACACAAACUAGAAGGCGAACUUG [Altered State 1-9 - Jieux - Same State 1] (puzzle: Same State 1)”, the “apparent KD of MS2 coat protein” value is, setting by setting: under setting [1], 0.0326 µM; under setting [2], 0.0396 µM; under setting [3], 0.0915 µM.

Regarding “UGGUACAUGGGAGGAUAUCAUGUAGAAACAUGAGGAUCACCCAUGUUGAUGGAGACAUCGGAGAUUGAGAAGGCCCAUGUACCU [JL SSNG1 3.57] (Eterna round: R96, puzzle: Same State NG 2)”, the “apparent KD of MS2 coat protein” value came out at 0.0156 µM (input ligand: FMN 200 uM), 0.0336 µM under setting [4] and 0.046 µM (input ligand: none).

With “UGGUACAUGGGAGGAUAUGGGCAAGGGACAUGAGGAUCACCCAUGUAUUAAAUGCCGAGAGGCAUCUAGAAGGCCCAUGUACCU [JL SSNG1 3.88] (Eterna round: R96, puzzle: Same State NG 2)”, the “apparent KD of MS2 coat protein” value (input ligand: FMN 200 uM) is 0.0178 µM, the “apparent KD of MS2 coat protein” value under setting [4] came out at 0.0798 µM and the “apparent KD of MS2 coat protein” value (input ligand: none) was 0.173 µM.

For the sequence “UGGUACAUGGGAGGAUAUGGGCAUGAGACAUGAGGAUCACCCAUGUUAUAAAAGCCGAGAGGCAUCUAGAAGGCCCAUGUACCU [JL SSNG1 3.91] (Eterna round: R96, puzzle: Same State NG 2)”, the “apparent KD of MS2 coat protein” value (input ligand: FMN 200 uM) was 0.0152 µM, the “apparent KD of MS2 coat protein” value under setting [4] came out at 0.0952 µM and the “apparent KD of MS2 coat protein” value (input ligand: none) worked out at 0.139 µM.

For “UGUAAACAUGAGGAUCACCCAUGUUUUUUCAUGGGAGGAUAUCUGAGUUAAGUAUAUUAAGGAGAAGGCCUAUUGU [× ×•×ª×• ×ž×“×™× ×” × ×—×ª-02] (puzzle: Same State 1)”, the “apparent KD of MS2 coat protein” value by setting is: under setting [1], 0.0838 µM; under setting [2], 0.078 µM; under setting [3], 0.286 µM.

Take “UGUACCUGCACAGGAUAUCAUGCGAAAAUUGCGUGAGAAGGGUGAAUACUGUCUUUCUAAGAGUACAUGAGGAUCACCCAUGUA [SameState NG1 #61] (Eterna round: R96, puzzle: Same State NG 1)”: the “apparent KD of MS2 coat protein” value is 0.156 µM (input ligand: FMN 200 uM), 0.0918 µM under setting [4] and 0.119 µM (input ligand: none).
